Data: patent US20220402983A1 (Janssen / Centocor, published 2022)
*1 amine or outer side, *2 acyl side, *3 side chain or, on linkers, in order; H or OH if unused. Bridges are numbered along the chain shown (N, C = ends). Primed or numbered codes have the meaning given here. Where no end group is shown, it is not given here. [ ]: non-standard residue; d: D form. The star is where a group is joined. Phe(4-OMe)″ = 4-methoxyphenylalanine, COc1ccc(C[C@H](N[*:1])C(=O)[*:2])cc1; Phe(4-CONH2) = NC(=O)c1ccc(C[C@H](N)C(=O)O)cc1; αMeW = C[C@](N)(Cc1c[nH]c2ccccc12)C(=O)O; FPrpTriazoleMe_Acid = not defined here; 2Nal = N[C@@H](Cc1ccc2ccccc2c1)C(=O)O; AEF = NCCOc1ccc(C[C@H](N)C(=O)O)cc1; αMeF = C[C@](N)(Cc1ccccc1)C(=O)O; αMeE = C[C@](N)(CCC(=O)O)C(=O)O; Pen = CC(C)(S)[C@H](N)C(=O)O; Ac6c = NC1(C(=O)O)CCCCC1; Thp = NC1(C(=O)O)CCOCC1; Abu = CC[C@H](N)C(=O)O; pr = not defined here; Aib = CC(C)(N)C(=O)O; Piv = CC(C)(C)C(=O)*; Alloc = C=CCOC(=O)*; Propyl = CCC*

T1: human IL-23R (interleukin-23 receptor) (human, UniProt Q5VWK5 24-629)
T1 sequence (looked up): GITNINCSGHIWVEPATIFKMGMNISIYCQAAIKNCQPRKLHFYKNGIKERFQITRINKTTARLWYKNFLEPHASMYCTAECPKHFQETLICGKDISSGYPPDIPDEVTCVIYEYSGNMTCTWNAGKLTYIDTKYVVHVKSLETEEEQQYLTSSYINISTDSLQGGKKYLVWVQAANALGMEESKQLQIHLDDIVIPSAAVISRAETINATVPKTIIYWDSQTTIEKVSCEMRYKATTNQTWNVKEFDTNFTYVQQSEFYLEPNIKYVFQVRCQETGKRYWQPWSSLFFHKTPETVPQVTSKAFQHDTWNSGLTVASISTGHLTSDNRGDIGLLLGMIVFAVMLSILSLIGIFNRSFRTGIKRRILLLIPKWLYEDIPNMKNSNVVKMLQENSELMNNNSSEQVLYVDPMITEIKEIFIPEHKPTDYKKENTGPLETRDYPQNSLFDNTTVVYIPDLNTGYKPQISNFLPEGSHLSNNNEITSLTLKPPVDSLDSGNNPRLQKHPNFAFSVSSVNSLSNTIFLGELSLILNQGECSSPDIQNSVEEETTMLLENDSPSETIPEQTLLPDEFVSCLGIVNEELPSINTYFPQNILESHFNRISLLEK

B1: Compound No. 30 (peptide)
peptide: Ac-[dR][Abu]QTWQC[AEF][2Nal][Thp]QN[αMeF]-NH2
modifications: thioether 2-7
B2: Compound No. 37 (peptide)
peptide: Ac-[dR][Abu]QTWQC[AEF][2Nal][Thp][αMeE]N[Thp]-NH2
modifications: thioether 2-7
B3: Compound No. 36 (peptide)
peptide: Ac-[dR][Abu]QTWQC[AEF][2Nal][Thp][αMeE]N[αMePhe(4-F)]-NH2
modifications: thioether 2-7
B4: Compound No. 32 (peptide)
peptide: Ac-[dR][Abu]QTWQC[AEF][2Nal][Thp][αMeE]N[1(2Nal)]-NH2
modifications: thioether 2-7
B5: Compound No. 31 (peptide)
peptide: Ac-[dR][Abu]QTWQC[AEF][2Nal][Thp][αMeE]N[αMeW]-NH2
modifications: thioether 2-7
B6: Compound No. 26 (peptide)
peptide: pr-[dR][Pen]QTWQ[Pen][AEF][2Nal][Thp]K(Piv)NF-NH2
modifications: disulfide 2-7; reading uncertain
B7: Compound No. 35 (peptide)
peptide: Ac-[dR][Abu]QTWQC[AEF][2Nal][Thp][αMeE]N[2Nal]-NH2
modifications: thioether 2-7
B8: Compound No. 23 (peptide)
peptide: [dR]CQTWQ[Pen][AEF][2Nal][Thp]EN[αMeF]-NH2
modifications: disulfide 2-7; not fully specified (N-terminus)
B9: Compound No. 28 (peptide)
peptide: Ac-[dR][Abu]QTWQC[AEF][2Nal][Ac6c][αMeE]NF[Aib]-NH2
modifications: thioether 2-7
B10: Compound No. 29 (peptide)
peptide: Ac-[dR][Abu]QTWQC[AEF][2Nal][Ac6c][αMeE]N[αMeF]-NH2
modifications: thioether 2-7
B11: Compound No. 38 (peptide)
peptide: Ac-[dR][Abu]QTWQC[AEF][2Nal][Ac6c][αMeE]N[Thp]-NH2
modifications: thioether 2-7
B12: Compound No. 27 (peptide)
peptide: Ac-[dR][Abu]QTWQC[AEF][2Nal][Ac6c][αMeE]NF-NH2
modifications: thioether 2-7
B13: Compound No. 25 (peptide)
peptide: FPrpTriazoleMe_Acid-[dR][Abu]QTWQC[Phe(4-OMe)″][2Nal][Thp]EN[Thp]-NH2
modifications: thioether 2-7; reading uncertain
B14: Compound No. 33 (peptide)
peptide: Propyl-[dR][Pen]QTWQ[Pen][AEF][2Nal][Thp]K(Alloc)NF-NH2
modifications: disulfide 2-7
SMILES: C=CCOC(=O)NCCCC[C@H](NC(=O)C1(NC(=O)[C@H](Cc2ccc3ccccc3c2)NC(=O)[C@H](Cc2ccc(OCCN)cc2)NC(=O)[C@H]2NC(=O)[C@H](CCC(N)=O)NC(=O)[C@H](Cc3c[nH]c4ccccc34)NC(=O)[C@H]([C@@H](C)O)NC(=O)[C@H](CCC(N)=O)NC(=O)[C@@H](NC(=O)[C@@H](CCCNC(=N)N)NCCC)C(C)(C)SSC2(C)C)CCOCC1)C(=O)N[C@@H](CC(N)=O)C(=O)N[C@@H](Cc1ccccc1)C(N)=O
B15: Compound No. 39 (peptide)
peptide: Ac-[dR][Abu]QTWQ[Pen][AEF][2Nal][Ac6c][αMeE]N[Thp]-NH2
modifications: thioether 2-7
B16: Compound No. 34 (peptide)
peptide: Ac-[dR][Abu]QTWQC[AEF][2Nal][Thp][αMeE]N[Phe(4-CONH2)]-NH2
modifications: thioether 2-7

These binders were tested against T1, human IL-23R (interleukin-23 receptor) (assay: cell-based or functional assay).

PBMC pSTAT3 IC50 (nM) | Binder
25 nM | B1
11 nM | B2
14 nM | B3
19 nM | B4
16 nM | B5
8.2 nM | B6
25 nM | B7
17 nM | B8
23 nM | B9
30 nM | B10
4.3 nM | B11
11 nM | B12
21 nM | B13
11 nM | B14
92 nM | B15
5.8 nM | B16
